The record followed here is patent US20230051701A1 (Bristol-Myers Squibb, published 2023).

Experiment [1] concerns the target T1, N-terminal domain of hCD73 (residues 26-336 of human CD73), His-tagged (human, UniProt P21589 26-336).
T1 construct: also called N-hCD73; N-hCD73-his
T1 sequence: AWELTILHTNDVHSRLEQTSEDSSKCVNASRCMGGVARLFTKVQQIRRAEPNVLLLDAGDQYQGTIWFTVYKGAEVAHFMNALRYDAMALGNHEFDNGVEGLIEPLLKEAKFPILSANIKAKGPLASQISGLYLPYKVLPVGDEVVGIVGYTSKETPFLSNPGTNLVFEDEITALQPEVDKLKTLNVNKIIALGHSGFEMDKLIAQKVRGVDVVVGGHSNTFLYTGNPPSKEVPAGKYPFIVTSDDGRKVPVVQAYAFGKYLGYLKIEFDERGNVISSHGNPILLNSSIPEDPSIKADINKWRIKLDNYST
Description: SPR, comparison of all IgG2 molecules. How it is done: For these experiments, protein A (Pierce) was immobilized to a density of 3000 — 4000 RU on flow cells 1-4 of a CM5 sensor chip (GE Healthcare) using standard ethyl(dimethylaminopropyl) carbodiimide (EDC)/N-hydroxysuccinimide (NHS) chemistry, with ethanolamine blocking, in a running buffer of 0.01 M HEPES pH 7.4, 0.15 M NaCl, 3 mM EDTA, 0.005% v/v tween 20. […] The running buffer for the kinetic experiments was 10 mM sodium phosphate, 130 mM sodium chloride, 0.05% tween 20, pH 7.1. The surfaces were regenerated after each cycle using two 30 s pulses of 10 mM glycine pH 1.5 at a flow rate of 30 μl/min. Sensogram data was double-referenced and then fitted to a 1:1 Langmuir model using Biacore T100 evaluation software v2.0.4, to determine the association rate constant (ka), the dissociation rate constant (kd), and the equilibrium dissociation constant (KD).

The target in experiment [2] is T2, mouse CD73 (mouse, UniProt Q61503 29-551, limits assumed).
T2 sequence (looked up): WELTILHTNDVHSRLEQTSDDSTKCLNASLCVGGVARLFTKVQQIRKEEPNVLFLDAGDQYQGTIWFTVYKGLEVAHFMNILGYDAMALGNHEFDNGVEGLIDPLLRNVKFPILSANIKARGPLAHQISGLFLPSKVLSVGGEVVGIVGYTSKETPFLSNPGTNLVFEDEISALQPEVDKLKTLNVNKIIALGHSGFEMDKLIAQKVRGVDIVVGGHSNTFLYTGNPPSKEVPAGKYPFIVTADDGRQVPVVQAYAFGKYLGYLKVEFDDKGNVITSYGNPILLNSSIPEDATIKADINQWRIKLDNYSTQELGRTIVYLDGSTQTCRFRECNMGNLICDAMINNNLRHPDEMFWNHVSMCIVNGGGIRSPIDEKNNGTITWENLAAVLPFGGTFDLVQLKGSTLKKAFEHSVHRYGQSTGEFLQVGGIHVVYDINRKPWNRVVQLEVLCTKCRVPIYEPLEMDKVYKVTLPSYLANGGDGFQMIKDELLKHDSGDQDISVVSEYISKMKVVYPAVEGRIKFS
The experiment is described as follows: SPR study of Example 3A; format not described.

Experiment [3] concerns the target T3, rat CD73 (rat, UniProt P21588 29-551, limits assumed).
T3 sequence (looked up): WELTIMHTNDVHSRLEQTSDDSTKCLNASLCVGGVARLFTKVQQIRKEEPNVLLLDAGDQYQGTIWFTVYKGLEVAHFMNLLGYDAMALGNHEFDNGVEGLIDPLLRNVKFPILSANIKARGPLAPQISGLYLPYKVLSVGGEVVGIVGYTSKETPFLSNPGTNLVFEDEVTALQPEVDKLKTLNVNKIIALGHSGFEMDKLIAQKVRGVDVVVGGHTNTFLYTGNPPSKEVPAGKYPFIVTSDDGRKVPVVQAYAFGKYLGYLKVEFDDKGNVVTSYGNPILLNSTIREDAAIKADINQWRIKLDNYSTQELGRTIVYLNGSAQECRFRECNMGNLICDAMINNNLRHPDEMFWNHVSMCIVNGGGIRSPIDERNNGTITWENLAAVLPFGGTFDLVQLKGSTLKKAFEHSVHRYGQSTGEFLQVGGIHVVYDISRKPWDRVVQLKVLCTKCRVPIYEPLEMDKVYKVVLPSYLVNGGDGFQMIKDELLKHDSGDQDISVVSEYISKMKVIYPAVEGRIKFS
The experiment is described as follows: SPR study of Example 3A; format not described.

Experiment [4] addresses T4, human CD73 on cells (Calu6, NCI-H292, SK-MEL-24, human tumor cell lines, human B and T cells) (human, UniProt P21589 27-549).
T4 sequence: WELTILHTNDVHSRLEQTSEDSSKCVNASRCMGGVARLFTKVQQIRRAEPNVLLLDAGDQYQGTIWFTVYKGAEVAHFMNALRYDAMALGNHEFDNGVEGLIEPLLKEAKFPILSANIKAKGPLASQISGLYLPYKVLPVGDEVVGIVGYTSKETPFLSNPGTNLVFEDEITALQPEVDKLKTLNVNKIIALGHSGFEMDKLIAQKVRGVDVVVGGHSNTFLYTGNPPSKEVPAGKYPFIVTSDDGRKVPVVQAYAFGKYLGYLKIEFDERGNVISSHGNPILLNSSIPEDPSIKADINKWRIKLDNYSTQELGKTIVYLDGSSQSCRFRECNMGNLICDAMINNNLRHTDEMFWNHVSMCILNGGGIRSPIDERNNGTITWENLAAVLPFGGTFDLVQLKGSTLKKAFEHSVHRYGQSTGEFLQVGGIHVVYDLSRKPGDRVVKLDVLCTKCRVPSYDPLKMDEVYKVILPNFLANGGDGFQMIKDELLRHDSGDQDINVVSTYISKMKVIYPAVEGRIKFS
The experiment is described as follows: cell-based or functional assay.

Experiment [5] concerns the target T5, rhCD73 bound to his-tag magnet beads (human, UniProt P21589 27-549, limits assumed).
T5 sequence: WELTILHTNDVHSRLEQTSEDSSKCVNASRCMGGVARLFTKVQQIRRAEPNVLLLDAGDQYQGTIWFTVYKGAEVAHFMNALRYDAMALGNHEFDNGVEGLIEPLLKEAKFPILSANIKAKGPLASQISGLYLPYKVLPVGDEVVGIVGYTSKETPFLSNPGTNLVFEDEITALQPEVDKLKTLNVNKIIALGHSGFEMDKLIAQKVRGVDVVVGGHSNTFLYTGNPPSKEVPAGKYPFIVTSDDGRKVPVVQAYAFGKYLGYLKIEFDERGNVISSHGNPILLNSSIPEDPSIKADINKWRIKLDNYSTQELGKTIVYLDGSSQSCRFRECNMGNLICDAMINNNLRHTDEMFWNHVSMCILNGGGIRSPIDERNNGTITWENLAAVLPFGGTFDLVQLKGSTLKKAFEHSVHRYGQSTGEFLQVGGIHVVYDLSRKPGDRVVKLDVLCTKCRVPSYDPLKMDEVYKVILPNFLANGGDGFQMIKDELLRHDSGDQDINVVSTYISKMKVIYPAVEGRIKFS
Description: cell-based or functional assay.

B1: CD73.10-IgG2-C219S (antibody)
heavy: QVQLVESGGGVVQPGRSLRLSCAASGFTFSNYGMHWVRQAPGKGLEWVAVIWYDESNKYYPDSVKGRFTISRDNSKNTLYLQMNSLRAEDTAVYYCARGGSSWYPDSFDIWGQGTMVTVSSASTKGPSVFPLAPCSRSTSESTAALGCLVKDYFPEPVTVSWNSGALTSGVHTFPAVLQSSGLYSLSSVVTVPSSNFGTQTYTCNVDHKPSNTKVDKTVERKSCVECPPCPAPPVAGPSVFLFPPKPKDTLMISRTPEVTCVVVDVSHEDPEVQFNWYVDGVEVHNAKTKPREEQFNSTFRVVSVLTVVHQDWLNGKEYKCKVSNKGLPAPIEKTISKTKGQPREPQVYTLPPSREEMTKNQVSLTCLVKGFYPSDIAVEWESNGQPENNYKTTPPMLDSDGSFFLYSKLTVDKSRWQQGNVFSCSVMHEALHNHYTQKSLSLSPG
light: not shown
notes: also called CD73.10-IgG2CS; CD73.10-IgG2S
With B1, the “fold lower affinity than 11F11 or CD73.4” value in experiment [1] is around 10 fold.

B2: CD73.4-IgG2-C219S-IgG1.1f (antibody)
heavy: QVQLVESGGGVVQPGRSLRLSCAASGFTFSNYGMHWVRQAPGKGLEWVAVILYDGSNKYYPDSVKGRFTISRDNSKNTLYLQMNSLRAEDTAVYYCARGGSSWYPDSFDIWGQGTMVTVSSASTKGPSVFPLAPCSRSTSESTAALGCLVKDYFPEPVTVSWNSGALTSGVHTFPAVLQSSGLYSLSSVVTVPSSNFGTQTYTCNVDHKPSNTKVDKTVERKSCVECPPCPAPPVAGPSVFLFPPKPKDTLMISRTPEVTCVVVDVSHEDPEVKFNWYVDGVEVHNAKTKPREEQYNSTYRVVSVLTVLHQDWLNGKEYKCKVSNKALPSSIEKTISKAKGQPREPQVYTLPPSREEMTKNQVSLTCLVKGFYPSDIAVEWESNGQPENNYKTTPPVLDSDGSFFLYSKLTVDKSRWQQGNVFSCSVMHEALHNHYTQKSLSLSPG
light: not shown
modifications: 94% of the N-terminal glutamine was pyro-Q; 97% of the heavy chains lacked the C-terminal lysine
notes: also called CD73.4-IgG2CS-IgG1.1f
For the molecule B2, in experiment [2], the binding result was “no binding”. Besides, the binding result in experiment [3] is recorded as “no binding”. Further, in experiment [4], the “EC50, blockade of endogenous cellular CD73 in Calu6” value is 0.31 to 0.48 nM and the “EC50 for blockade of endogenous cellular CD73 in Calu6” value was in the range of 0.31 to 0.48 nM. Further, the “EC50, recombinant human CD73 enzyme inhibition assay” value in experiment [5] was 2.9 to 3.1 nM.
